The text below walks through data of patent publication US20110195069A1.

Experiment [1] has as its target human factor D (purified from human serum, or as present in human serum/plasma) (human) (UniProt P00746). The experiment can be described thus: ELISA: wells coated with purified human factor D, serially diluted MAb, HRP goat anti-mouse IgG (Fc), OD450. On the technique in general: In an ELISA, binding on a coated surface is turned into a signal by an enzyme label.
For experiment [2], the target named is factor D/VDA (human factor D mutant V113E, D116E, A118P) (human) (UniProt P00746). The experiment can be described thus: ELISA: wells coated with recombinant factor D protein at 0.5 µg/ml, serially diluted MAb 166-32, HRP goat anti-mouse IgG (Fc), OD450.
Experiment [3] has as its target factor D/Pighu (pig-human factor D hybrid) (pig; human) (UniProt P00746). The description is as above.
The target of experiment [4] is baboon factor D (in baboon serum) (baboon). The experiment is described as follows: cell-based or functional assay.
Experiment [5] has as its target dog factor D (in dog serum) (dog). The experiment is described as follows: cell-based or functional assay. To be noted: scale: times less effective than for human factor D.
The target in experiment [6] is human factor D (purified from human serum, or as present in human serum/plasma) (human) (UniProt P00746). The experiment is described as follows: cell-based or functional assay.

With MAb 166-32 (antibody), the EC50 (read off the curve) in experiment [1] is 0.008 µg/mL. Further, the EC50 (read off the curve) in experiment [2] came to 0.02 µg/mL. Moreover, the EC50 (read off the curve) in experiment [3] came to 0.02 µg/mL. The inhibition of alternative complement hemolytic activity (rabbit red blood cells) of plasma samples from baboons given 5 mg/kg Mab 166-32, 18 hours after CPB in experiment [4] was 79.3%. The neutralization of dog factor D in hemolytic assays, compared to human factor D in experiment [5] was greater than 10. For the same substance, in experiment [6], the alternative pathway hemolytic activity of plasma from extracorporeal circuits of human whole blood (molar ratio MAb : factor D) was 1.5, the inhibition of factor D dependent alternative pathway hemolysis of unsensitized rabbit RBCs (factor D depleted human serum supplemented with purified factor D) was found to be 0.3 µg/mL and the molar ratio (MAb 166-32 to factor D) for inhibition of factor D dependent hemolysis (molar ratio MAb 166-32 : factor D) was 0.5.

As a reminder, the EC50 (read off the curve) is the concentration at which the effect is half-maximal.
